Non-standard residues stand in square brackets, D forms with d. Phe(4-NO2) = N[C@@H](Cc1ccc([N+](=O)[O-])cc1)C(=O)O

The test system of one assay is FR-α. As to the kind of experiment: Antibody titer in serum of immunized mice, indirect ELISA. Type of assay: in vivo. The conditions noted are these: FIG. 15; compared with the FR-α group and the FR-α-PADRE group; mice immunized subcutaneously, 50 μg, Freund's adjuvant. The protocol:
(§1) The protocol is as follows: • (1) The helper epitope was connected to individual antigens or antigen epitope with the linking peptide to construct multiple fusion antigens. The sequence of the linking peptide is GPSL (i.e. Gly-Pro-Ser-Leu) (SEQ ID NO:51). • (2) The fusion antigens from (1) were emulsified adequately with complete Freund's adjuvant of the same volume. Then to immunize mice via subcutaneous injection with the emulsion at the dose of 50 μg per mouse. The strains of experimental mice including C57, Fvb and Balb/C. After 7 days and 14 days of first immunization, the fusion antigens from (1) were emulsified adequately with incomplete Freund's adjuvant of the same volume and then to immunize mice via subcutaneous injection with the emulsion at the dose of 50 μg per mouse. • (3) There are two detection methods. One is to obtain the orbital blood of immunized mice on 7, 14, 21 and 28 day respectively, centrifuge the whole blood to get the serum. Then the antibody titer is detected by indirect ELISA. The other one is: one week after the last immunization, the mice are killed to get the spleen. PBMC (peripheral blood mononuclear cells) are isolated, and the CTL-mediated cytotoxicity is detected by LDH (lactate dehydrogenase) kit.
(§2) The first step was to construct the fusion antigen. According to each fusion antigen, C57BL/6 female mice aged 6-8 weeks were randomly divided into three groups with 6 mice in each group. They were PBS group, existing antigen or antigen epitope group, antigen-PADRE or antigen epitope-PADRE group, and vaccine group containing fusion antigen.
(§3) In the second step, using fusion antigen to immunize mice via subcutaneous injection for 3 times […] 50 μg each time. Mixed with Freund's adjuvant of the same volume.
(§4) Method 1: The whole blood was collected every week after immunization and centrifugated at 6000 rpm for 20 min to obtain the serum for a total of 4 weeks. Antibody titers were detected by indirect ELISA as follows: • (1) Coating: the existing antigen or antigen epitope was diluted to 5 μg/mL with coating solution. Then the 100 μL mixed solution was added into each well of enzyme immunoassay test strip, and incubated in 37° C. incubator for 2 h; • (2) use PBST to wash each well 5 times for 5 min each time; • (3) Sealing: 150 μL locking solution was added to each well of the enzyme immunoassay test strip and incubated at 4° C. overnight. • (4) Repeat step (2); • (5) Incubation first antibody: the collected mouse serum was diluted with antibody diluent. Then the 100 μL mixed solution was added into each well, and incubated at 37° C. for 2 h; • (6) Repeat step (2); • (7) Incubating secondary antibodies: HRP-GOAT Anti-mouse IgG was diluted with antibody dilution in the ratio of 1:10000, and 100 μL dilution was added to each well, and incubated at 37° C. for 45 min; • (8) Repeat step (2); • (9) Substrate addition: 100 μL TMB substrate reaction solution was added into each well of enzyme label, and incubated at 37° C. for 15 min in darkness. • (10) Termination reaction: 50 μL 2M H2SO4 was added into each well to terminate the reaction. • (11) Color development: the absorbance value of the sample in each well was detected at 450/630 nm.

A further assay has as its system EPCAM. Described as above. Type of assay: in vivo. The conditions noted are these: FIG. 16; compared with the EPCAM group and the EPCAM-PADRE group; mice immunized subcutaneously, 50 μg, Freund's adjuvant. How it is done: as §1, §2, §3, §4

B1: FRα-3 ? 8pPhe-PADRE: fusion antigen: FR-α linked via GPSL to helper epitope SEQ ID NO: 16 (protein)
chain: RIAWARTELLNVCMNAKHHKEKPGPEDKLHEQCRPWRKNACCSTNTSQEAHKDVSYLYRFNWNHCGEMAPACKRHFIQDTCLYECSPNLGPWIQQVDQSWRKERVLNVPLCKEDCEQWWEDCRTSYTCKSNWHKGWNWTSGFNKCAVGAACQPFHFYFPTPTVLCNEIWTHSYKVSNYSRGSGRCIQMWFDPAQGNPNEEVARFYAAAMSGPSLAKXVAAWXLKAAA
modifications: pPhe non-natural residue; (217)..(217) Xaa stands for 4-Nitrophenylalanine.; (222)..(222) Xaa stands for 4-Nitrophenylalanine.
Regarding B1, the antibody titers entry with FR-α is recorded as “increased significantly”.

B2: EPCAM-3 ? 11pPhe-PADRE: fusion antigen: EPCAM linked via GPSL to helper epitope SEQ ID NO: 17 (protein)
chain: QEECVCENYKLAVNCFVNNNRQCQCTSVGAQNTVICSKLAAKCLVMKAEMNGSKLGRRAKPEGALQNNDGLYDPDCDESGLFKAKQCNGTSMCWCVNTAGVRRTDKDTEITCSERVRTYWIIIELKHKAREKPYDSKSLRTALQKEITTRYQLDPKFITSILYENNVITIDLVQNSSQKTQNDVDIADVAYYFEKDVKGESLFHSKKMDLTVNGEQLDLDPGQTLIYYVDEKAPEFSMQGLKGPSLAK[Phe(4-NO2)]VAAWTLK[Phe(4-NO2)]AA
Turning to B2, the antibody titers entry in the assay with EPCAM is “increased significantly”.
